T1: CHCHD4 (human (endogenous in HEK293), UniProt Q8N4Q1 1-142)
T1 construct: CHCHD4, mammalian homologue of yeast Mia40; endogenous protein of HEK293 cells, precipitated with polyclonal anti-CHCHD4 antibodies (Proteintech); source: endogenous, HEK293 lysate
T1 sequence (looked up): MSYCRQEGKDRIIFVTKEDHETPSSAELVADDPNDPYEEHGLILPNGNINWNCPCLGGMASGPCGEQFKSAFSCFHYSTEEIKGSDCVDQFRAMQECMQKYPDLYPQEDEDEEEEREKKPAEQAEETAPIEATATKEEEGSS


How the values were obtained:
[1] = molecular target: CHCHD4 (human (endogenous in HEK293)) (UniProt Q8N4Q1); assay: co-IP; HEK293 cells transfected with PINK1-EGFP or its mutants for 24 hr; lysed; immunoprecipitation of endogenous CHCHD4 with anti-CHCHD4 antibody; immunoblot; level in the precipitant compared to input
CHCHD4 = molecular target: T1, CHCHD4; assay: as above; conditions: partners not purified

| relative level in the precipitants as compared to input [1] | relative level in the precipitants as compared to input (CHCHD4) | Molecule |
| --- | --- | --- |
| 1.01 |  | PINK1‐EGFP ∆166‐171 (AA166‐171 deletion) (from UniProt Q9BXM7 78-581) (natural protein) |
|  | 0.2 | PINK1‐EGFP A168P (natural protein, UniProt Q9BXM7 78-581, looked up, PINK1 as in PINK1-EGFP with the PD-associated mutation A168P; also called PINK1 A168P; PD‐associated mutant; source: HEK293, transfected, in lysate; not shown: EGFP (from the vector pEGFP-N3), C-terminal, kept) AARLQRQFVVRAWGCAGPCGRAVFLAFGLGLGLIEEKQAESRRAVSACQEIQAIFTQKSKPGPDPLDTRRLQGFRLEEYLIGQSIGKGCSPAVYEATMPTLPQNLEVTKSTGLLPGRGPGTSAPGEGQERAPGAPAFPLAIKMMWNISAGSSSEAILNTMSQELVPASRVALAGEYGAVTYRKSKRGPKQLAPHPNIIRVLRAFTSSVPLLPGALVDYPDVLPSRLHPEGLGHGRTLFLVMKNYPCTLRQYLCVNTPSPRLAAMMLLQLLEGVDHLVQQGIAHRDLKSDNILVELDPDGCPWLVIADFGCCLADESIGLQLPFSSWYVDRGGNGCLMAPEVSTARPGPRAVIDYSKADAWAVGAIAYEIFGLVNPFYGQGKAHLESRSYQEAQLPALPESVPPDVRQLVRALLQREASKRPSARVAANVLHLSLWGEHILALKNLKLDKMVGWLLQQSAATLLANRLTEKCCVETKMKMLFLANLECETLCQAALLLCSWRAAL |
|  | 3.31 | PINK1‐EGFP Y171S (natural protein, UniProt Q9BXM7 78-581, looked up, PINK1 as in PINK1-EGFP with Y171S; also called Y171S point mutant; source: HEK293, transfected, in lysate; not shown: EGFP (from the vector pEGFP-N3), C-terminal, kept) AARLQRQFVVRAWGCAGPCGRAVFLAFGLGLGLIEEKQAESRRAVSACQEIQAIFTQKSKPGPDPLDTRRLQGFRLEEYLIGQSIGKGCSAAVSEATMPTLPQNLEVTKSTGLLPGRGPGTSAPGEGQERAPGAPAFPLAIKMMWNISAGSSSEAILNTMSQELVPASRVALAGEYGAVTYRKSKRGPKQLAPHPNIIRVLRAFTSSVPLLPGALVDYPDVLPSRLHPEGLGHGRTLFLVMKNYPCTLRQYLCVNTPSPRLAAMMLLQLLEGVDHLVQQGIAHRDLKSDNILVELDPDGCPWLVIADFGCCLADESIGLQLPFSSWYVDRGGNGCLMAPEVSTARPGPRAVIDYSKADAWAVGAIAYEIFGLVNPFYGQGKAHLESRSYQEAQLPALPESVPPDVRQLVRALLQREASKRPSARVAANVLHLSLWGEHILALKNLKLDKMVGWLLQQSAATLLANRLTEKCCVETKMKMLFLANLECETLCQAALLLCSWRAAL |
|  | 0.39 | PINK1‐EGFP V170G (natural protein, UniProt Q9BXM7 78-581, looked up, PINK1 as in PINK1-EGFP with the PD-associated mutation V170G; also called PINK1 V170G; PD‐associated mutant; source: HEK293, transfected, in lysate; not shown: EGFP (from the vector pEGFP-N3), C-terminal, kept) AARLQRQFVVRAWGCAGPCGRAVFLAFGLGLGLIEEKQAESRRAVSACQEIQAIFTQKSKPGPDPLDTRRLQGFRLEEYLIGQSIGKGCSAAGYEATMPTLPQNLEVTKSTGLLPGRGPGTSAPGEGQERAPGAPAFPLAIKMMWNISAGSSSEAILNTMSQELVPASRVALAGEYGAVTYRKSKRGPKQLAPHPNIIRVLRAFTSSVPLLPGALVDYPDVLPSRLHPEGLGHGRTLFLVMKNYPCTLRQYLCVNTPSPRLAAMMLLQLLEGVDHLVQQGIAHRDLKSDNILVELDPDGCPWLVIADFGCCLADESIGLQLPFSSWYVDRGGNGCLMAPEVSTARPGPRAVIDYSKADAWAVGAIAYEIFGLVNPFYGQGKAHLESRSYQEAQLPALPESVPPDVRQLVRALLQREASKRPSARVAANVLHLSLWGEHILALKNLKLDKMVGWLLQQSAATLLANRLTEKCCVETKMKMLFLANLECETLCQAALLLCSWRAAL |

From paper PMC7511888, “Dependence of PINK1 accumulation on mitochondrial redox system” (Aging Cell, 2020)
